Results as given in patent publication US20090180952A1.

B1: mAb ATN-615 (antibody, IgG1, V domains shown)
VH: VKLQQSGPEVVKPGASVKISCKASGYSFTNFYIHWVKQRPGQGLEWIGWIFHGSDNTEYNEKFKDKATLTADTSSSTAYMQLSSLTSEDSAVYFCARWGPHWYFDVWGQGTTVTVSS
VL: DIVLTQSPDITAASLGQKVTITCSASSSVSYMHWYQQKSGTSPKPWIFEISKLASGVPARFSGSGSGTSYSLTISSMEAEDAAIYYCQQWNYPFTFGGGTKLEIKR
B2: mAb ATN-658 (antibody, IgG1, V domains shown)
VL: not shown
VH: VQLQESGPELVKTGASVKISCKASGYSFTSYYMHWVKQSHGKSLEWIGEINPYNGGASYNQKIKGRATFTVDTSSRTAYMQFNSLTSEDSAVYYCARSIYGHSVLDYWGQGTTVTVS
modifications: not checked

What was measured:
[1] = biological target: recombinant soluble urokinase plasminogen activator receptor (suPAR, aa 1-279) (UniProt Q03405); test: direct binding assay (format and antigen form not stated)
[2] = biological target: uPAR on the surface of HeLa cells, Q03405; test: 125I-ATN-658 saturation binding to HeLa cells
Sequence of uPAR on the surface of HeLa cells, Q03405 (Q03405 23-305 limits assumed): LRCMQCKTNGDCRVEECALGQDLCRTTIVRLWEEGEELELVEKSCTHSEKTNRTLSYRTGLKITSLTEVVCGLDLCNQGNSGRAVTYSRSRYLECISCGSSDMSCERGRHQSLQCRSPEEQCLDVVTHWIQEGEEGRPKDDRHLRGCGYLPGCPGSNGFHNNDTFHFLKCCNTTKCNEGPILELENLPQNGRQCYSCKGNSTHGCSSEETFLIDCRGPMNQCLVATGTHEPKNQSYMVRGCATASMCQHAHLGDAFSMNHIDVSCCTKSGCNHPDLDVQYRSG

Binder	Kd [1] [nM]	Kd [2] [nM]
B1	2	
B2		1.5
